Target: mouse complement protein C5 (mouse) (UniProt P06684)
Experiment: cell-based or functional assay

monoclonal anti-C5 antibody BB5.1, sequence (VH): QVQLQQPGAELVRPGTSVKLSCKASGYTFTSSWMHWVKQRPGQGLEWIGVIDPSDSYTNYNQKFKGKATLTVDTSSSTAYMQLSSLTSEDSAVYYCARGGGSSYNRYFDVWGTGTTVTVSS
monoclonal anti-C5 antibody BB5.1, sequence (VL): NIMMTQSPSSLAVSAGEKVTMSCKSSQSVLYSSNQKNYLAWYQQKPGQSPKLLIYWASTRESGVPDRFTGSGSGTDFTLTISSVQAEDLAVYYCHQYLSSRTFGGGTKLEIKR

Substance	50% Inhibitory Dose, classical pathway haemolysis assay	Haemolytic Units (HU), classical pathway haemolysis assay
Crovalimab (original name SKY59) (antibody)	1860 ng/mL	1.4 HU
monoclonal anti-C5 antibody BB5.1	614 ng/mL	16.3 HU
